Source: patent US20130053541A1, “METHODS FOR DISCOVERING MOLECULES THAT BIND TO PROTEINS” (LYNNTECH, INC., priority 2011, published 2013)
Where no end group is shown, it is not given here.

What was measured:
[1] = target: T1, native human ESRRG protein (Homo sapiens, UniProt P62508); assay: peptide microarray screening for ESRRG binding (Iteration 1 and 2); conditions: for Sample A (Bkgd) Signal / Sample B (Probe) Signal: fluorescence intensity units
T1 sequence (P62508 1-458): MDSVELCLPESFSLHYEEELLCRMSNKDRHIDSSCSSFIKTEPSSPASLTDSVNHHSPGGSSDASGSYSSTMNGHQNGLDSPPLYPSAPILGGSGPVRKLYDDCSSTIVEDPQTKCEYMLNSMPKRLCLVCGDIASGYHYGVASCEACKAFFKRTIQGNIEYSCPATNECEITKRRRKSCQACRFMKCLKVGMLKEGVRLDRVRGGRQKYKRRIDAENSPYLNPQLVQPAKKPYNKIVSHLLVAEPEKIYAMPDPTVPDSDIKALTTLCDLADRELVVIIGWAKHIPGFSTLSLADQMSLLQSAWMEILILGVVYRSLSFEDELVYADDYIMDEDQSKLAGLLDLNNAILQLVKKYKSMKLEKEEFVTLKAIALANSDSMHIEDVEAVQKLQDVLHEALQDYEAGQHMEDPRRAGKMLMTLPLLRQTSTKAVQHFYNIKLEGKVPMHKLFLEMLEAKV
Text: The BLOSUM62 matrix was divided into Tiers based, with Tier 1 comprising “most conserved” (lowest penalty) and Tier 3 comprising “least conserved” (highest penalty) mutations observed in nature. Sequences for microarray production for the primary stage (Iteration 1) of screening for protein binding were created by permuting AA positions 4 and/or 5 only (i.e., core of sequence) of parent 8-mer peptides using Tier 1 and Tier 3 substitutions. This allows the systematic variation of the sequence in order to identify the most important motif within the larger candidate ligand sequence that is needed for binding the target protein. All peptides on the array were grown from the C→N terminal, with the exposed N-terminal amino acid masked by an acetyl group to prevent folding of the sequence and enable full presentation of the peptide to its target protein.
(§1) Screening was carried out typically by hybridization of the protein (1 μg/mL) against the array for 1 h at 4° C.; detection of bound protein was carried out using a fluorescently labeled anti-ESRRG mAb. (Direct labeling of ESRRG and alternative detection strategies are equally valid).
Highest binders (based on relative fluorescence signal) were selected and iteratively sequence expanded and arrayed (Iteration 2); and ESRRG binding sequences were selected as above. For iterative arrays, the core positions (AA 4 and 5) were kept unchanged while the outer amino acids (2, 3, 6, and/or 7) were permuted using Tier 3 substitutions.
Daughter candidate ligands and their new Tier 3 and/or Tier 1 based combinations were synthesized in situ on an addressable peptide microarray and screened against native human ESRRG protein in order to determine sequences that bind to this protein. Bound protein was detected by a fluorescently labeled anti-ESRRG mAb. Results are obtained in fluorescence intensity units which were used to rank the peptide ligands. Excess (100×) competing biological matrices (human serum, HSA/BSA or bacterial protein extract) were used as backgrounds to select for specific ligands to the protein. Other competing proteins can be added to background for specificity selection and directed evolution of ligands.
Iterative sequence expansion and arraying of 10 highest binding ligands to ESRRG from Iteration 1 was carried out and the new peptide sequences were synthesized on an array and screened against the protein, as described above. In this step, the central 2 amino acids (core) in peptide sequences were maintained unchanged while outlying amino acids (2, 3, 6, and 7) were permuted (using Tier 1 and Tier 3 substitutions) in a ‘cipher’ or ‘combination’ lock approach. Further affinity maturation of sequence was observed, with multifold enhancement in binding signal of Iteration 2 sequences (i.e., Granddaughters) compared to their respective parents from Iteration 1 (i.e., Daughters) on the same array.

[2] = target: T2, native human ESRRG protein (Estrogen-receptor related receptor gamma) (human, UniProt P62508 229-458, limits assumed); assay: peptide microarray, Iteration 2; bound ESRRG detected with fluorescent anti-ESRRG mAb
T2 construct: the screened protein is called 'native human ESRRG protein'; also called ESSRG; ERRγ
T2 sequence (looked up): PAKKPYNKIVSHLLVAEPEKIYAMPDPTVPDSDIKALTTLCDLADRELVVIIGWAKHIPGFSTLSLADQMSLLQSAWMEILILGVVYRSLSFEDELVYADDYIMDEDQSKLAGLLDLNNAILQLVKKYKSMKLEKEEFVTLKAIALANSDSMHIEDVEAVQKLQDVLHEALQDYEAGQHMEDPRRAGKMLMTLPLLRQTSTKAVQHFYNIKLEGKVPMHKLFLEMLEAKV
Procedure: as §1
Iterative sequence expansion and arraying of 10 highest binding ligands to ESRRG from Iteration 1 was carried out and the new peptide sequences were synthesized on an array and screened against the protein, as described above. In this step, the central 2 amino acids (core) in peptide sequences were maintained unchanged while outlying amino acids (2, 3, 6, and 7) were permuted (using Tier 1 and Tier 3 substitutions) in a ‘cipher’ or ‘combination’ lock approach.

RKAIFGKY
Sample A (Bkgd) Signal ([1]; Iteration 1 primary screen): 23.63

EESYPRDK
Sample A (Bkgd) Signal ([1]; Iteration 2 iterative screen): 121.27

ANNSLLLH
Sample A (Bkgd) Signal ([1]; Iteration 1 primary screen): 14.53 | Sample B (Probe) Signal ([1]; Iteration 1 primary screen): 1,321.14

ANNSSLLH
Sample A (Bkgd) Signal ([1]; Iteration 1 primary screen): 7.39 | Sample B (Probe) Signal ([1]; Iteration 1 primary screen): 1,153.13

AANYVLLL
Sample A (Bkgd) Signal ([1]; Iteration 1 primary screen): 14.74 | Sample B (Probe) Signal ([1]; Iteration 1 primary screen): 2,199.01

PDSYPRWG
Sample A (Bkgd) Signal ([1]; Iteration 2 iterative screen): 288.88 | Sample B (Probe) Signal ([1]; Iteration 2 iterative screen): 5,591.60

NFNYLLPH
Sample A (Bkgd) Signal ([1]; Iteration 2 iterative screen): 470.56 | Sample B (Probe) Signal ([1]; Iteration 2 iterative screen): 13,817.90

AHNYLLEH
Sample A (Bkgd) Signal ([1]; Iteration 2 iterative screen): 115.46

AANMLLLL
Sample A (Bkgd) Signal ([1]; Iteration 1 primary screen): 25.96 | Sample B (Probe) Signal ([1]; Iteration 1 primary screen): 1,191.86

YHNYLLHP
Sample A (Bkgd) Signal ([1]; Iteration 2 iterative screen): 240.19 | Sample B (Probe) Signal ([1]; Iteration 2 iterative screen): 1,309.00

Ac-LLHKSKSQ-NH2 (C-terminus assumed)
log2 (Sample B/Sample A) ([1]; Iteration 1 primary screen): 4.99 | Sample A (Bkgd) Signal ([1]; Iteration 1 primary screen): 30.24 | Sample B (Probe) Signal ([1]; Iteration 1 primary screen): 962.22

YFLLQQGP
Sample A (Bkgd) Signal ([1]; Iteration 2 iterative screen): 202.29

Ac-HNSYPRNE
Sample B (Probe) Signal [2]: 802 fluorescence intensity units | log2 (Sample B/Sample A) [2]: 2.48

Ac-NNNFSLHM
Sample B (Probe) Signal [2]: 4370 fluorescence intensity units | log2 (Sample B/Sample A) [2]: 4.45

Ac-HRSYPRVY
Sample B (Probe) Signal [2]: 2450 fluorescence intensity units | log2 (Sample B/Sample A) [2]: 2.31

Ac-YHNYLLHP
Sample B (Probe) Signal [2]: 1310 fluorescence intensity units | log2 (Sample B/Sample A) [2]: 2.45

Ac-EESYPRDK
Sample B (Probe) Signal [2]: 554 fluorescence intensity units | log2 (Sample B/Sample A) [2]: 2.19

Ac-HLKLKQEN
Sample B (Probe) Signal [2]: 1750 fluorescence intensity units | log2 (Sample B/Sample A) [2]: 3.25

Ac-WNSYPRND
Sample B (Probe) Signal [2]: 2200 fluorescence intensity units | log2 (Sample B/Sample A) [2]: 2.91

Ac-FFKGHFKF
Sample B (Probe) Signal [2]: 5440 fluorescence intensity units | log2 (Sample B/Sample A) [2]: 3.32

Ac-DNNYLLLL
Sample B (Probe) Signal [2]: 2240 fluorescence intensity units | log2 (Sample B/Sample A) [2]: 3.84

Ac-GKSYPRHR
Sample B (Probe) Signal [2]: 3050 fluorescence intensity units | log2 (Sample B/Sample A) [2]: 2.46

Ac-HRSYPRRG
Sample B (Probe) Signal [2]: 19000 fluorescence intensity units | log2 (Sample B/Sample A) [2]: 4.56

Ac-FFNFSLPA
Sample B (Probe) Signal [2]: 1040 fluorescence intensity units | log2 (Sample B/Sample A) [2]: 2.66

Ac-LFKLKQDG
Sample B (Probe) Signal [2]: 2780 fluorescence intensity units | log2 (Sample B/Sample A) [2]: 3.32

Ac-LFLLQQDD
Sample B (Probe) Signal [2]: 2420 fluorescence intensity units | log2 (Sample B/Sample A) [2]: 3.47

Ac-HDNMYLNE
Sample B (Probe) Signal [2]: 7240 fluorescence intensity units | log2 (Sample B/Sample A) [2]: 6.47

Ac-HFKLKQGG
Sample B (Probe) Signal [2]: 3110 fluorescence intensity units | log2 (Sample B/Sample A) [2]: 2.28

Ac-PWKLKQDP
Sample B (Probe) Signal [2]: 1340 fluorescence intensity units | log2 (Sample B/Sample A) [2]: 2.76

Ac-PDSYPRWG
Sample B (Probe) Signal [2]: 5590 fluorescence intensity units | log2 (Sample B/Sample A) [2]: 4.27

Ac-WANYLLPP
Sample B (Probe) Signal [2]: 2860 fluorescence intensity units | log2 (Sample B/Sample A) [2]: 3.97

Ac-DINFSLGI
Sample B (Probe) Signal [2]: 4800 fluorescence intensity units | log2 (Sample B/Sample A) [2]: 4.9

Ac-FWNMYLNP
Sample B (Probe) Signal [2]: 775 fluorescence intensity units | log2 (Sample B/Sample A) [2]: 2.29

Ac-NFNYLLPH
Sample B (Probe) Signal [2]: 13800 fluorescence intensity units | log2 (Sample B/Sample A) [2]: 4.88

Ac-LFKLKQND
Sample B (Probe) Signal [2]: 1860 fluorescence intensity units | log2 (Sample B/Sample A) [2]: 2.34

Ac-HNNYLLNN
Sample B (Probe) Signal [2]: 964 fluorescence intensity units | log2 (Sample B/Sample A) [2]: 2.34

Ac-HYKLKQHE
Sample B (Probe) Signal [2]: 1300 fluorescence intensity units | log2 (Sample B/Sample A) [2]: 2.97

Ac-NLLLKHPD
Sample B (Probe) Signal [2]: 2300 fluorescence intensity units | log2 (Sample B/Sample A) [2]: 3.41

Ac-WIKLKQND
Sample B (Probe) Signal [2]: 2340 fluorescence intensity units | log2 (Sample B/Sample A) [2]: 3.69

Ac-TGKLKQDG
Sample B (Probe) Signal [2]: 2460 fluorescence intensity units | log2 (Sample B/Sample A) [2]: 3.55

Ac-ALNFSLNW
Sample B (Probe) Signal [2]: 662 fluorescence intensity units | log2 (Sample B/Sample A) [2]: 2.12

Ac-LILLQQLD
Sample B (Probe) Signal [2]: 1250 fluorescence intensity units | log2 (Sample B/Sample A) [2]: 2.82

Ac-WGKLKQGE
Sample B (Probe) Signal [2]: 1230 fluorescence intensity units | log2 (Sample B/Sample A) [2]: 2.56

Ac-AHNYLLEH
Sample B (Probe) Signal [2]: 619 fluorescence intensity units | log2 (Sample B/Sample A) [2]: 2.42

Ac-EDSYPRDG
Sample B (Probe) Signal [2]: 5020 fluorescence intensity units | log2 (Sample B/Sample A) [2]: 4.08

Ac-NNSYPRHR
Sample B (Probe) Signal [2]: 3420 fluorescence intensity units | log2 (Sample B/Sample A) [2]: 2.23

Ac-PFKLKQGN
Sample B (Probe) Signal [2]: 6980 fluorescence intensity units | log2 (Sample B/Sample A) [2]: 2.2
